Here are results for three molecules from article PMC3627587.

The target in data set [1] is T1, sIHF (Streptomyces coelicolor, UniProt Q9KXR9 1-107).
T1 sequence: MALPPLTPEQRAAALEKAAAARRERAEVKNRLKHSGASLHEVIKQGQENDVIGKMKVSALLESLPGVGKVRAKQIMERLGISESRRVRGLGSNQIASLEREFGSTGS
The data set can be described thus: EMSA.

Data set [2] deals with T1, sIHF. In words: EMSA. This is another data set of the same source.

Like-named read-outs stand apart in the source and are kept apart here.

B1: 43-bp dsDNA (dsDNA)
DNA 1: ACCAGGTGGTTGCCGATCACCACGAAGCGGGTGGTGTGGCGGG
DNA 2: CCCGCCACACCACCCGCTTCGTGGTGATCGGCAACCACCTGGT
For B1, in data set [1], the binding result is reported as “binds”.

B2: 60-bp dsDNA (dsDNA)
DNA 1: CGTACGCGTCGCCACGGCGGCGGCATCGTCCACGAGAACACCCGCCACACCACCCGCTTC
DNA 2: GAAGCGGGTGGTGTGGCGGGTGTTCTCGTGGACGATGCCGCCGCCGTGGCGACGCGTACG
As to B2, the binding result in data set [1] is “binds”.

B3: 19-bp duplex (20bp OH1/OH2) (dsDNA)
DNA 1: GAGGGAGTGCGTGGGTCTGA
DNA 2: CTCAGACCCACGCACTCCCT
Turning to B3, in data set [2], the binding result is given as “binds”.
